ChEMBL document CHEMBL2074001, “Competition of hydrophobic peptides, cytotoxic drugs, and chemosensitizers on a common P-glycoprotein pharmacophore as revealed by its ATPase activity” (J Biol Chem, 1996)

Assays:
[1] = test system: CC(C)[C@@H]1NC(=O)[C@H](C)OC(=O)[C@@H](C(C)C)NC(=O)[C@@H](C(C)C)OC(=O)[C@H](C(C)C)NC(=O)[C@H](C)OC(=O)[C@@H](C(C)C)NC(=O)[C@@H](C(C)C)OC(=O)[C@H](C(C)C)NC(=O)[C@H](C)OC(=O)[C@@H](C(C)C)NC(=O)[C@@H](C(C)C)OC1=O; assay: (§1) TP_TRANSPORTER: ATP hydrolysis in reconstituted proteoliposomes; format: functional, subcellular
[2] = test system: CC[C@H]1CN2CCc3cc(OC)c(OC)cc3[C@@H]2C[C@@H]1C[C@H]1NCCc2cc(OC)c(OC)cc21; assay: as §1; format: functional, subcellular

Q: For “ATP-dependent translocase ABCB1 (Homo sapiens)”, which Km [1] is on record?
A: 1 µM

Q: What about the Km [2] of the same substance?
A: 6 µM
